Data on five molecules can be found in article PMC7241714, “Structure-function investigation of 3-methylaspartate ammonia lyase reveals substrate molecular determinants for the deamination reaction” (PLoS ONE, 2020).

Where two headings read alike, the source gives them in different places.

The target in data set [1] is T1, 3-methylaspartate ammonia lyase (CaMAL) (Citrobacter amalonaticus, UniProt O66145).
T1 construct: C-terminal His-tag
Description: steady-state inhibition kinetics of 3-methylaspartate deamination (UV assay). The format is biochemical.

Substrate in data set [2]: C[C@H](C(=O)O)[C@H](N)C(=O)O
Nature of the data set: purified protein. It is filed as biochemical, Clostridium tetanomorphum. The conditions noted are these: Mg2+; pH 9.0; 30.0 °C.

Substrate in data set [3]: N[C@@H](CC(=O)O)C(=O)O
Description: purified protein. The format is biochemical, Clostridium tetanomorphum. The conditions noted are these: Mg2+; pH 9.0; 30.0 °C.

Substrate in data set [4]: C[C@H](C(=O)O)[C@H](N)C(=O)O
Nature of the data set: purified protein. The format is biochemical, Carboxydothermus hydrogenoformans. The conditions noted are these: Mg2+; pH 9.0; 30.0 °C.

Substrate in data set [5]: C[C@H](C(=O)O)[C@H](N)C(=O)O
Description: purified protein. It is filed as biochemical, Citrobacter amalonaticus. Particulars: Mg2+ catalytic pocket; pH 9.0; 30.0 °C.

By Ki is commonly meant a measure of affinity in units of concentration, obtained from inhibition or displacement. As for `NCCC[C@H](N)CC(=O)O` [β-lysine], the affinity in data set [1] corresponds to a Ki of 1.7 ± 0.4 mM.
For `NC(CC(=O)O)CC(=O)O` [β-glutamic acid], the Ki in data set [1] (read-out: Ki) was 71 ± 3 mM.

B1: 3-methylaspartate ammonia lyase (CtMAL) (Clostridium tetanomorphum) (protein)
chain: MKIVDVLCTPGLTGFYFDDQRAIKKGAGHDGFTYTGSTVTEGFTQVRQKGESISVLLVLEDGQVAHGDCAAVQYSGAGGRDPLFLAKDFIPVIEKEIAPKLIGREITNFKPMAEEFDKMTVNGNRLHTAIRYGITQAILDAVAKTRKVTMAEVIRDEYNPGAEINAVPVFAQSGDDRYDNVDKMIIKEADVLPHALINNVEEKLGLKGEKLLEYVKWLRDRIIKLRVREDYAPIFHIDVYGTIGAAFDVDIKAMADYIQTLAEAAKPFHLRIEGPMDVEDRQKQMEAMRDLRAELDGRGVDAELVADEWCNTVEDVKFFTDNKAGHMVQIKTPDLGGVNNIADAIMYCKANGMGAYCGGTCNETNRSAEVTTNIGMACGARQVLAKPGMGVDEGMMIVKNEMNRVLALVGRRK
notes: C-terminal His-tag
What is called Km is the concentration of substrate that gives half-maximal velocity. A word on the kcat: it is the number of substrate molecules converted per active site and unit of time at saturation. For B1, in the data set “purified protein [2]”, the Km came to 3990 ± 610 µM and the kcat was determined as 7.6 ± 0.4 s⁻¹. In addition, in “purified protein [3]”, the Km is 67000 ± 6000 µM and the kcat worked out at 1.6 ± 0.1 s⁻¹.

B2: 3-methylaspartate ammonia lyase (ChMAL) (Carboxydothermus hydrogenoformans Z-2901) (protein)
chain: MRIKDVLFVKGSSGFYFDDQKAIKSGAVTDGFTYKGKPLTPGFSRVRQGGEAVSIMLFLENGEIAVGDCVAVQYSGVDGRDPVFLADNFIEVLEEEIKPRLVGYNLVRFREAARYFTNLTDKRGKRYHTALRYGLTQALLDAVAKINRTTMAEVIAEEYGLDLTLNPVPLFAQSGDDRYINADKMILKRVDVLPHGLFNHPAKTGEEGKNLTEYALWLKQRIKTLGDHDYLPVFHFDVYGTLGTVFNDNLDRIADYLARLEEKVAPHPLQIEGPVDLGSKERQIEGLKYLQEKLITLGSKVIIVADEWCNNLSDIKEFVDAGAGGMVQIKSPDLGGVNDIIEAVLYAKEKGTGAYLGGSCNETDVSAKITVHVGLATGPAQLLVKPGMGVDEGLTIMRNEMMRTLAILQRNKVTFQKKVG
notes: C-terminal His-tag
Regarding B2, in the data set “purified protein [4]”, the Km came out at 1380 ± 170 µM and the catalytic constant (kcat) stood at 66 ± 2 s⁻¹.

B3: 3-methylaspartate ammonia lyase (CaMAL) (Citrobacter amalonaticus) (protein)
chain: MKIKQALFTAGYSSFYFDDQQAIKNGAGHDGFIYTGDPVTPGFTSVRQAGECVSVQLILENGAVAVGDCAAVQYSGAGGRDPLFLAEHFIPFLNDHIKPLLEGRDVDAFLPNARFFDKLRIDGNLLHTAVRYGLSQALLDATALASGRLKTEVVCDEWQLPCVPEAIPLFGQSGDDRYIAVDKMILKGVDVLPHALINNVEEKLGFKGEKLREYVRWLSDRILSLRSSPRYHPTLHIDVYGTIGLIFDMDPVRCAEYIASLEKEAQGLPLYIEGPVDAGNKPDQIRMLTAITKELTRLGSGVKIVADEWCNTYQDIVDFTDAGSCHMVQIKTPDLGGIHNIVDAVLYCNKHGMEAYQGGTCNETEISARTCVHVALAARPMRMLIKPGMGFDEGLNIVFNEMNRTIALLQTKD
notes: C-terminal His-tag
In the case of B3, in “purified protein [5]”, the Km is 1000 ± 60 µM and the kcat came to 17.6 ± 0.3 s⁻¹.
